In patent US9200040B2, “Specific binding agents of human angiopoietin-2” (Amgen Inc., priority 2001, dated 2015):
Like-named read-outs stand apart in the source and are kept apart here. Primed or numbered codes have the meaning given here. Where no end group is shown, it is not given here. [ ]: non-standard residue; d: D form. Fc(6) = Fc vehicle: non-antigen-binding antibody fragment (from proteolytic digestion of an antibody) fused to the peptide; Fc(8) = Fc vehicle: non-antigen-binding antibody fragment fused to the peptide (peptibody); Fc(5) = non-antigen-binding fragment of an antibody (vehicle) fused to the peptide; Fc(9) = antibody Fc fragment, the non-antigen-binding fragment

Assays:
[1] = biological target: T1, hAng-1 (Homo sapiens, UniProt Q15389); test: Neutralization ELISA (Example 2); format: binding; conditions: Table 5; about 1 nM Tie-2-Fc
T1 sequence (Q15389 16-498): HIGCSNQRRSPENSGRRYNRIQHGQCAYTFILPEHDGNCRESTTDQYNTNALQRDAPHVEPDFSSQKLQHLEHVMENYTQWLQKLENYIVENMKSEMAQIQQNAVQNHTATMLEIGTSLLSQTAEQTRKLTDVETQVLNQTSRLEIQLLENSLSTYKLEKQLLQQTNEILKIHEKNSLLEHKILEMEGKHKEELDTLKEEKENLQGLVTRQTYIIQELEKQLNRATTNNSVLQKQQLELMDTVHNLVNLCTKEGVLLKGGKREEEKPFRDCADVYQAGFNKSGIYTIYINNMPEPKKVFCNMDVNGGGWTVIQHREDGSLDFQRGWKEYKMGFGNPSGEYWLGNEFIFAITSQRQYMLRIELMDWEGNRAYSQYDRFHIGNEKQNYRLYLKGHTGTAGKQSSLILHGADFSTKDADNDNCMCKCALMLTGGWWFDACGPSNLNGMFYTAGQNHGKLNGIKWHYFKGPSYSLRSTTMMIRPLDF

[2] = biological target: T2, hAng-2 (Homo sapiens, UniProt O15123); test: Affinity BIAcore (Example 2); format: binding; conditions: Table 6
T2 construct: conditioned media of human 293T cells transfected with full length human Ang-2 DNA; made in house; host or cells: conditioned media
T2 sequence (O15123 19-496): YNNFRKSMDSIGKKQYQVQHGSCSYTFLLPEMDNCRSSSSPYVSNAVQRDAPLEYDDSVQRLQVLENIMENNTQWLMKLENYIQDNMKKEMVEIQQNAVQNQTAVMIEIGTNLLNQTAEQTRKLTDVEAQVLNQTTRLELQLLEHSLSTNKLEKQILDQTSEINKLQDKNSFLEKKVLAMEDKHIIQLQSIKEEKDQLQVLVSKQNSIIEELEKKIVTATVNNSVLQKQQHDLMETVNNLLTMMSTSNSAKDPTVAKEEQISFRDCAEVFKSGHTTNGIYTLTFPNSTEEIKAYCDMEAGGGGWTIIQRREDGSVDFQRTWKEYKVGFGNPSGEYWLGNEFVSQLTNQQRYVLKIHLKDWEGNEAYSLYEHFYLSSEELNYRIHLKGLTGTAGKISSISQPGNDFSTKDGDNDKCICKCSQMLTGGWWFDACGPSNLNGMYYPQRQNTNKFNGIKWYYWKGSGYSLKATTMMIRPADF
Description: (§1) Binding assays were carried out by first capturing about 100 Ru of each candidate anti-Ang-2 peptibody to the immobilized Protein G, after which various concentrations (0-100 nM) of huAng-2 or mAng-2 were injected over the bound antibody surface at a flow rate of 50 μl/min for 3 minutes. Peptibody binding kinetic parameters including ka (association rate constant), kd (dissociation rate constant) and KD (dissociation equilibrium constant) were determined using the BIA evaluation 3.1 computer program (Biacore, Inc.). Lower dissociation equilibrium constants indicated greater affinity of the peptibody for Ang-2.

[3] = biological target: T3, mAng-2 (Mus musculus, UniProt O35608); test: Affinity BIAcore (Example 2); format: binding, murine; conditions: Table 6
T3 construct: made in house
T3 sequence (O35608 19-496): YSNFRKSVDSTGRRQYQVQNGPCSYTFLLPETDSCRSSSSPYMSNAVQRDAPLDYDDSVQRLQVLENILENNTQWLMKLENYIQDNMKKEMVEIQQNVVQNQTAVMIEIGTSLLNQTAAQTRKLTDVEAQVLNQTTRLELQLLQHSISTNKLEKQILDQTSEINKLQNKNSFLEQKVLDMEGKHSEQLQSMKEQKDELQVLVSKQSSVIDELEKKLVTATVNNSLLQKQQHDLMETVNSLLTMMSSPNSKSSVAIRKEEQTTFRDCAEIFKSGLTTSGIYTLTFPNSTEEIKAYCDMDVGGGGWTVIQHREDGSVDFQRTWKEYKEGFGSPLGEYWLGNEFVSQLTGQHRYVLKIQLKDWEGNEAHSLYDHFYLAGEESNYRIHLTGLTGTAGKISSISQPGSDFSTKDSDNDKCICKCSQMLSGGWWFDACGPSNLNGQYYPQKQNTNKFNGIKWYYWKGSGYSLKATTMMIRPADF
Description: as §1

[4] = biological target: T4, huAng2 (Homo sapiens, UniProt O15123); test: BIAcore binding to huAng2 (Example 9); conditions: Table 8
T4 construct: purchased R&D Systems BNO12103A
T4 sequence (O15123 68-496 limits assumed): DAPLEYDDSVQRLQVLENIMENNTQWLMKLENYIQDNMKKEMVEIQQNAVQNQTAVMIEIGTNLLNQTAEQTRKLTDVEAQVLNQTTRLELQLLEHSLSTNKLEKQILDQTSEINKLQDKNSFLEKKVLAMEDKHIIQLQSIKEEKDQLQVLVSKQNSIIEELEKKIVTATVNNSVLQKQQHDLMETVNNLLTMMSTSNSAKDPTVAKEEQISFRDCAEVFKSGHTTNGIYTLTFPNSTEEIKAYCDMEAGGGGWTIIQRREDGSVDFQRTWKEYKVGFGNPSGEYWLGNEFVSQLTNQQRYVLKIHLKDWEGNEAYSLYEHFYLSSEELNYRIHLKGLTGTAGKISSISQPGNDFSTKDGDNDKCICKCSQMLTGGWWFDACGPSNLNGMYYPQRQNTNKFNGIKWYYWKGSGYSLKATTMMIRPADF
Description: Six samples of anti-Ang2 peptibodies were tested for their binding activity to huAng2 (R&D Systems, BNO12103A) on BIAcore. Protein G was immobilized to a CM5 chip according to the standard amine-coupling protocol (BIAcore Inc.), and the peptibodies were then injected over a protein G surface for capturing (RL˜100 Ru). To test binding between hAng2 and the captured peptibody, 0.3 nM to 40 nM of huAng2 was injected over the captured peptibody surfaces, and binding sensorgrams were analyzed using BIAevaluation 3.0 (BIAcore Inc.).

[5] = system: Colo-205 tumor; conditions: for tumor growth vs. vehicle control: from study day 14: 2×Con4-C 350 μg/mouse s.c. twice a week, p<0.0001
Description: Female nude mice were injected subcutaneously with 2×10^6 Colo-205 cells plus Matrigel (2:1) on study day 0. At day 3, the Ang-2 peptibodies L1-7-N, L1-21-N, Con4-C, and 2×Con4-C were administered subcutaneously at the dose of […], twice a week.
Female nude mice were injected subcutaneously with 2×10^6 Colo-205 cells plus Matrigel (2:1) on study day 0.
Female nude mice were injected subcutaneously with 2×10^6 Colo-205 cells plus Matrigel (2:1) on study day 0. At day 3, Ang-2 peptibody 2×Con4-C or control peptibody were administered subcutaneously at the dose of 350 μg/day. Tumors from groups treated with control peptibody (as described in Table 5) were harvested either at Day 14 (size-matched control) or Day 18 (time-matched control). Tumors from 2×Con4(C) treated group were then harvested at Day 18. Tumor volumes were recorded at regular intervals, as shown.
Female nude mice were injected subcutaneously with 2×10^6 Colo-205 cells plus Matrigel (2:1) on study day 0. Treatment with 350 μg/mouse, s.c. twice a week, of the Ang-2 peptibody 2×Con4-C, or equivalent control peptibody started either at study day 3, 10 or 15. […] The results are set forth in FIG. 8 (body weights not shown).
Female nude mice were injected subcutaneously with 2×10^6 Colo-205 cells plus Matrigel (2:1) on study day 0. At study day 14, treatments were started with a) 350 μg/mouse, s.c. twice a week, of the Ang-2 peptibody 2×Con4-C, b) 20 mg/kg qwx3 i.p. of taxotere, or c) a combination of both.
Female nude mice were injected subcutaneously with 2×10^6 Colo-205 cells plus Matrigel (2:1) on study day 0. At study day 14 started treatments with a) 350 μg/mouse, s.c. twice a week, of the Ang-2 peptibody 2×Con4-C, b) 50 mg/kg qdx5 i.p. of 5-FU, or c) a combination of both.

hAng-1 IC 50 [1] | ka [4] [M⁻¹ s⁻¹] | kd [4] [s⁻¹] | Compound | further results
No In- | – | – | MGAQ-FDYCEGVEDPFTFGCDNHLE-GGGGG-Fc (MGAQFDYCEGVEDPFTFGCDNHLEGGGGG[Fc(6)]; cysteine pairing not given here) [12-9 (N)] | hAng-2 ka [2]: 120000 M⁻¹ s⁻¹; hAng-2 kd [2]: 0.001 s⁻¹; mAng-2 ka [3]: 720000 M⁻¹ s⁻¹; mAng-2 kd [3]: 0.00023 s⁻¹
No In- | – | – | MGAQ-QYGCDGFLYGCMINLE-GGGGG-Fc (MGAQQYGCDGFLYGCMINLEGGGGG-{Fc(9)}; not fully specified (bridges); printed as MGAQ-QYGCDGFLYGCMINLE-GGGGG-Fc; cysteine pairing not given here) [C17 (N)] | –
No In- | – | – | MGAQ-HQICKWDPWTCKHWLEGGGGG-Fc (MGAQHQICKWDPWTCKHWLEGGGGG[Fc(5)]; not fully specified (bridges); printed as MGAQ-HQICKWDPWTCKHWLEGGGGG-Fc; cysteine pairing not given here) [8-14 (N)] | –
– | 370000 | 8.7e-05 | MGAQ-TNFMPMDDLEQRLYEQFILQQG-LEGGGGG-Fc (MGAQTNFMPMDDLEQRLYEQFILQQGLEGGGGG-Fc) [L1-7 (N)] | –
– | 560000 | 0.00014 | MGAQ-HTFQPLDELEETLYYQWLYDQL LEGGGGG-Fc (MGAQHTFQPLDELEETLYYQWLYDQLLEGGGGG[Fc]; also: Fc vehicle domain fused (peptibody)) [L1-21 (N)] | –
– | 150000 | 0.00011 | MGAQ-QKFQPLDELEQTLYEQFMLQQA LEGGGGG-Fc (MGAQQKFQPLDELEQTLYEQFMLQQALEGGGGG[Fc]; also: Fc vehicle domain fused (peptibody)) [L1-10 (N)] | –
No In- | – | – | MGAQ-KRPCEEIFGGCTYQLEGGGGG-Fc (MGAQKRPCEEIFGGCTYQLEGGGGG[Fc(5)]; not fully specified (bridges); printed as MGAQ-KRPCEEIFGGCTYQLEGGGGG-Fc; cysteine pairing not given here) [Con1 (N)] | –
– | – | – | CC(=O)O[C@@]12CO[C@@H]1C[C@H](O)[C@@]1(C)C(=O)[C@H](O)C3=C(C)[C@@H](OC(=O)[C@H](O)[C@@H](NC(=O)OC(C)(C)C)c4ccccc4)C[C@@](O)([C@@H](OC(=O)c4ccccc4)[C@H]21)C3(C)C [taxotere, reference compound] | tumor growth vs. vehicle control ([5]; Example 19a, taxotere 20 mg/kg qwx3 i.p., or both): Significant differences in tumor growth
– | – | – | O=c1[nH]cc(F)c(=O)[nH]1 [Peptibody 5-FU, 5-FU, reference compound] | tumor growth vs. vehicle control ([5]; Example 19b, 5-FU 50 mg/kg qdx5 i.p., or both): Significant differences in tumor growth; transient reduction in body weight ([5]; Example 19b, at study day 20, followed by complete recovery): 18%
No In- | – | – | MGAQKFNPLDELEETLYEQFTFQQLEGGGGG-Fc [L1 (N)] | hAng-2 ka [2]: 290000 M⁻¹ s⁻¹; hAng-2 kd [2]: 0.00091 s⁻¹; mAng-2 ka [3]: 560000 M⁻¹ s⁻¹; mAng-2 kd [3]: 0.00023 s⁻¹
No In- | – | – | MGAQ-KRPCEEMWGGCNYDLEGGGGG-Fc (MGAQKRPCEEMWGGCNYDLEGGGGG[Fc(5)]; not fully specified (bridges); printed as MGAQ-KRPCEEMWGGCNYDLEGGGGG-Fc; cysteine pairing not given here) [8-8 (N)] | –
– | 290000 | 5.9e-05 | M-Fc-GGGGGAQ-PIRQEECDWDPWTCEHMWEV-LE (M[Fc(8)]GGGGGAQPIRQEECDWDPWTCEHMWEVLE; cysteine pairing not given here; also: Fc vehicle fused at position 2) [Con4-44 (C)] | –
